Data reported in the RNAGym collection of RNA variant scans (doi:10.1073/pnas.2313332121).
Variants at the floor of the assay were thinned out.

B1: TPR 5TU (parent)
chain: GGAUCUUCUCGAUCUAACAAAAAAGACAAAUCUGCCACAAAGCUUGAGAGCAUCUUCGGAUGCAGAGGCGGCAGCCUUCGGUGGCGCGAUAGCGCCAACGUUCUCAACUAUGACACGCAAAACGCGUGCUCCGUUGAAUGGAGUUUAUCAUG

Variants of: B1
Experiment: polymerase ribozyme fitness, log enrichment relative to wild type (log ratio); higher = more active; in vitro selection for triplet polymerase activity
Method in brief: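 Mutant libraries were PCR-built and transcribed for each subunit of a heterodimeric triplet polymerase ribozyme and selected for one round in triplicate at −7 °C, frozen, before gel excision of extended constructs and streptavidin-bead capture. Input and output libraries were Illumina-sequenced, keeping genotypes with ≥10 input reads and ≥1 read per output. Fitness is a logarithmic ratio of genotype to wild-type enrichment, in base 2, using inverse-variance-weighted replicate averages.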

Variant	polymerase ribozyme fitness (log ratio)
G11U C18U G84U	-3.2
C10G C57G G92C A113C G133A	≤ -4.2
C10G A30G C38A G94U C125G U144C	≤ -4.2
G11A C51G C87G A89U C125A U135G	≤ -4.2
G11C C27U G92U	-2.73
G11A A73G G92A A121G	≤ -4.2
U9G C43A C54A C75G C93G U146A	≤ -4.2
C10U A52U C85A	≤ -4.2
G11U C93G	-3.88
U9G A29U U45G C75A G88U C96A G141A	≤ -4.2
C10U U15G A23U C43U U82C G92U U104C	≤ -4.2
C10U A22C A60G C87U G88U	≤ -4.2
C10A A23G C32A C38U G46U G59A A60G A97G	≤ -4.2
G11C C35G A52U C63A G94A C131U	≤ -4.2
C10U G25C G80A C87G	≤ -4.2
G11C A49C U53G G141A	≤ -4.2
C10U A28U G94A U127G	-4.04
C10U C76U A91U C95A A113U A120U	≤ -4.2
G11C A23C G58A G81C C87A A138U	≤ -4.2
U9C A24U A41G C75U G83A G84A C93A	≤ -4.2
G11U A19C G68A G74A C87A C149G	≤ -4.2

Variant	polymerase ribozyme fitness (log ratio)
C10G A12G C27G A49G G62C G67A G68U C93U	≤ -4.2
G11A A91G C114U U144C	-4.14
U9G G68C G83A G84A C149U	≤ -4.2
C10G A26C C76A G83A	≤ -4.2
G11U C14G A26G U33G C57A C99G A120G	≤ -4.2
U9A U15G G50C G94A U135C G143A	≤ -4.2
C10A A12G A17U C32A C96U A110U C116U A147C	≤ -4.2
U9G U15C A19U C35G A113U C132U	≤ -4.2
U9C C27U G84U G126U	≤ -4.2
G11A A41U A60G U77C C87A	≤ -4.2
G11C U33G C38U A47C A49C G92A A97G U111G C118U G133U	-4.17
C10A C54U G67C C85A A107U	≤ -4.2
G11A C96U	-1.9
C10G C14U C36A C79U G92U	≤ -4.2
G11C A17G C32A C72U A113U G117U A122U U148G	≤ -4.2
U9A A64G A89U G92A C131G	≤ -4.2
U9C A37C U55G A66C G70C C76A C131U	≤ -4.2
U9G C18U A39G A49C C51A G94U A106G	≤ -4.2
C10U G42C A49C A66G C79G A91G C125A A147G A150C	≤ -4.2
C10A A17C G34A A91C U102G G140U	-3.67
U9A C10G G48U C63G C85A A137G G141U	≤ -4.2

Variant	polymerase ribozyme fitness (log ratio)
C10A U15G G58A G86U A98G A138U	≤ -4.2
U9C C10G	-4.15
U9C A26U C38U C54A A66C U78A A89C A97G	≤ -4.2
C10A A12U A47U C93G A137G	≤ -4.2
G11A C96G A120C U146C	-1.48
U9G C103A	-3.73
G11A A49C	≤ -4.2
C10A A17C A20C G34U G58C U90G	≤ -4.2
G11U G84A	-0.536
C10A G59A A91U U111A U127C A138U A150G	≤ -4.2
C10A C63U G67A U77C G92A U127C U135G	≤ -4.2
U9C U13A U15A C76U G86U	-4.11
G11C A20U A40U U82G G83A C93A C108A	≤ -4.2
U9C C14U C57G C93G G140U	≤ -4.2
G11U C18G C54A G88A C118A	≤ -4.2
G11C C35U	-2.11
C10A G58C A66U G80A C95U C96U U144G	≤ -4.2
G11U C35U C51U U55G G59U G68A G80A G83A	≤ -4.2
C10G A20C C36A U53A U134A A142U	≤ -4.2
G11U G25C C32U G50C A60G C95U	≤ -4.2
C10A G11U A30U C36A G48A C87G A122G	≤ -4.2

Variant	polymerase ribozyme fitness (log ratio)
C10G A12U A22G C35G G94A C95U C99A U111C	≤ -4.2
U9C C18G A21G A29U C87G	≤ -4.2
C10A A21G A29G C51U A52G U78C C95A A122U U146G	≤ -4.2
U9A C75G C85G C95G	≤ -4.2
C10G A20C A40U A64G G70U C87U	≤ -4.2
C10U U78A G86A A107G G124A G140A G141C	≤ -4.2
G11A G50C C93U A97U G141U	≤ -4.2
U9C A37U G92A U102G C108U	≤ -4.2
C10G G11C A12G G70U C85G U101C G128A	≤ -4.2
C10U A17C C38U G58C C96G	-3.69
C10U C38U A73G A89G A97G C116G A122U C129A	≤ -4.2
C10A A17C A41G C54G U55A C85U C95U U104G G126U A138G G152U	≤ -4.2
U9A A22U A39G C96G U109G	≤ -4.2
G11U C38A A40C U53A G58A	-3.76
C10G A89G	≤ -4.2
G11C C125G A142C	≤ -4.2
G11A A21U C87A	≤ -4.2
U9A C27U C36A G42C C69A G80A G136U G141C	≤ -4.2
G11A U55G G74C U77C A98U A115C	≤ -4.2
G11C C85U A119G	-2.02
